Measured values taken from PMC12033236.

T1: GST-GS2 (OsGRF4) (Oryza sativa, UniProt Q6ZIK5 1-394)
T1 sequence: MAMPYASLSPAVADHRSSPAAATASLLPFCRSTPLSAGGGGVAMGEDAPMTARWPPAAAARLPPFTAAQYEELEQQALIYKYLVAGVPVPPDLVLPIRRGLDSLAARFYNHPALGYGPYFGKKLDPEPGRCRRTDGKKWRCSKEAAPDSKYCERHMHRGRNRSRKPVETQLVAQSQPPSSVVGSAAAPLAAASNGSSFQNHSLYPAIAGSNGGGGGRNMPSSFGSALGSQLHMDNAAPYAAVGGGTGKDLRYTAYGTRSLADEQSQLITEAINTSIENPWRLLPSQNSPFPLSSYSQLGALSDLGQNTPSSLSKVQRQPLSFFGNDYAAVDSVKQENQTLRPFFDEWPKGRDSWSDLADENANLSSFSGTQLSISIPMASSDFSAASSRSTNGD

B1: SUG1 unlabeled probe A (competitor) (dsDNA)
DNA 1: CGCACAGTCCACCCAAAGCCGTTGTTA
DNA 2: TAACAACGGCTTTGGGTGGACTGTGCG
B2: SUG1 probe A-m (dsDNA)
DNA 1: CGCTACGTTCACCCAAAGCCGTTGTTA
DNA 2: TAACAACGGCTTTGGGTGAACGTAGCG
B3: SUG1 probe A (dsDNA)
DNA 1: CGCACAGTCCACCCAAAGCCGTTGTTA
DNA 2: TAACAACGGCTTTGGGTGGACTGTGCG

How the values were obtained:
GST-GS2 (OsGRF4) [1] = biological target: T1, GST-GS2 (OsGRF4); assay: competition
GST-GS2 (OsGRF4) [2] = biological target: T1, GST-GS2 (OsGRF4); assay: EMSA

Binder | binding result (GST-GS2 (OsGRF4) [1]) | binding result (GST-GS2 (OsGRF4) [2])
B1 | binds | 
B2 |  | no binding
B3 |  | binds
